Assay results as given in PMC2865183 (Nature chemical biology, 2009).

Biological target: the molecule itself
Assay: SEC

B1: VVD-36 M135I:M165I (domain or fragment, UniProt Q9C3Y6 37-186, looked up)
chain: HTLYAPGGYDIMGYLIQIMNRPNPQVELGPVDTSCALILCDLKQKDTPIVYASEAFLYMTGYSNAEVLGRNCRFLQSPDGMVKPKSTRKYVDSNTINTIRKAIDRNAEVQVEVVNFKKNGQRFVNFLTIIPVRDETGEYRYSMGFQCETE
fold increase in dimer affinity (against VVD-36): > 5 fold
